Results taken from US20080050387A1 (published 2008).

B1: ARA67 8-140 (other)
chain: WIPETLYNTAISAVVDNYIRSRRDIRSLPENIQFDVYYKLYQQGRLCQLGSEFCELEVFAKVLRALDKRHLLHHCFQALMDHGVKVASVLAYSFSRRCSYIAESDAAVKEKAIQVGFVLGGFLSDAGWYSDAE
notes: GST fusion on beads
B2: C-terminus of hRad9 (aa 269-391) (other)
chain: DSHSQDLGSPERHQPVPQLQAHSTPHPDDFANDDIDSYMIAMETTIGNEGSRVLPSISLSPGPQPPKSPGPHSEEEDEAEPSTVPGTPPPKKFRSLFFGSILAPVRSPQGPSPVLAEDSEGEG
notes: GAL4 DBD fusion (pM) in the two-hybrid assay; Flag-tagged (pCDNA3-Flag) in the AR N/C assay; also called C-hRad9; hRad9 C-terminus
B3: AR N-terminus, full length ARN (ARN1-556) (receptor)
chain: MEVQLGLGRVYPRPPSKTYRGAFQNLFQSVREVIQNPGPRHPEAASAAPPGASLLLLQQQQQQQQQQQQQQQQQQQQQETSPRQQQQQQGEDGSPQAHRRGPTGYLVLDEEQQPSQPQSALECHPERGCVPEPGAAVAASKGLPQQLPAPPDEDDSAAPSTLSLLGPTFPGLSSCSADLKDILSEASTMQLLQQQQQEAVSEGSSSGRAREASGAPTSSKDNYLGGTSTISDNAKELCKAVSVSMGLGVEALEHLSPGEQLRGDCMYAPLLGVPPAVRPTPCAPLAECKGSLLDDSAGKSTEDTAEYSPFKGGYTKGLEGESLGCSGSAAAGSSGTLELPSTLSLYKSGALDEAAAYQSRDYYNFPLALAGPPPPPPPPHPHARIKLENPLDYGSAWAAAAAQCRYGDLASLHGAGAAGPGSGSPSAAASSSWHTLFTAEEGQLYGPCGGGGGGGGGGGGGGGGGGGGGGGGEAGAVAPYGYTRPPQGLAGQESDFTAPDVWYPGGMVSRVPYPSPTCVKSEMGPWMDSYSGPYGDMRLETARDHVLPIDYYFPPQ
B4: GAL4 activation domain alone (other, UniProt P04386 768-881, looked up)
chain: ANFNQSGNIADSSLSFTFTNSSNGPNLITTQTNSQALSQPIASSNVHDNFMNNEITASKIDDGNNSKPLSPGWTDQTAYNAFGITTGMFNTTTMDDVYNYLFDDEDTPPNPKKE
notes: Negative control; also called GAL4-AD
B5: PCNA-like domain of hRad9 (N-hRad9, aa 1-270) (other)
chain: MKCLVTGGNVKVLGKAVHSLSRIGDELYLEPLEDGLSLRTVNSSRSAYACFLFAPLFFQQYQAATPGQDLLRCKILMKSFLSVFRSLAMLEKTVEKCCISLNGRSSRLVVQLHCKFGVRKTHNLSFQDCESLQAVFDPASCPHMLRAPARVLGEAVLPFSPALAEVTLGIGRGRRVILRSYHEEEADSTAKAMVTEMCLGEEDFQQLQAQEGVAITFCLKEFRGLLSFAESANLNLSIHFDAPGRPAIFTIKDSLLDGHFVLATLSDTDS
notes: GAL4 DBD fusion (pM) in the two-hybrid assay; Flag-tagged (pCDNA3-Flag) in the AR N/C assay; also called N-terminus of hRad9
B6: ARA67 281-550 (other)
chain: GSKHPKYSDTLLDYGFYLLNVDNICQSVAIYQAALDIRQSVFGGKNIHVATAHEDLAYSSYVHQYSSGKFDNALFHAERAIGIITHILPEDHLLLASSKRVKALILEEIAIDCHNKETEQRLLQEAHDLHLSSLQLAKKAFGEFNVQTAKHYGNLGRLYQSMRKFKEAEEMHIKAIQIKEQLLGQEDYEVALSVGHLASLYNYDMNQYENAEKLYLRSIAIGKKLFGEGYSGLEYDYRGLIKLYNSIGNYEKVFEYHNVLSNWNRLRDRQ
notes: GST fusion on beads
B7: ARA67/PAT1, full length (585 amino acids) (other)
chain: MAAVELEWIPETLYNTAISAVVDNYIRSRRDIRSLPENIQFDVYYKLYQQGRLCQLGSEFCELEVFAKVLRALDKRHLLHHCFQALMDHGVKVASVLAYSFSRRCSYIAESDAAVKEKAIQVGFVLGGFLSDAGWYSDAEKVFLSCLQLCTLHDEMLHWFRAVECCVRLLHVRNGNCKYHLGEETFKLAQTYMDKLSKHGQQANKAALYGELCALLFAKSHYDEAYKWCIEAMKEITAGLPVKVVVDVLRQASKACVVKREFKKAEQLIKHAVYLARDHFGSKHPKYSDTLLDYGFYLLNVDNICQSVAIYQAALDIRQSVFGGKNIHVATAHEDLAYSSYVHQYSSGKFDNALFHAERAIGIITHILPEDHLLLASSKRVKALILEEIAIDCHNKETEQRLLQEAHDLHLSSLQLAKKAFGEFNVQTAKHYGNLGRLYQSMRKFKEAEEMHIKAIQIKEQLLGQEDYEVALSVGHLASLYNYDMNQYENAEKLYLRSIAIGKKLFGEGYSGLEYDYRGLIKLYNSIGNYEKVFEYHNVLSNWNRLRDRQYSVTDALEDVSTSPQSTEEVVQSFLISQNVEGPSC
notes: Used as GST-ARA67 on beads, as [35S]methionine-labeled ARA67, as GAL4 DBD fusion (pM-ARA67) and as HA-ARA67 (pKH3) in COS-1 cells; also called ARA671-585; GST-ARA67

Tests used:
[1] = molecular target: B3; test: GST pull-down: GST-ARA67 fragments with 35S-labeled ARN
[2] = molecular target: T1, VP16-AR containing the residues 37 to 919 (human, UniProt P10275 37-920); test: mammalian two-hybrid in PC-3 cells, GAL4 DBD-hRad9 constructs + VP16-AR, 10 nM DHT
T1 construct: also called pCMX-VP16-AR; full length AR fused to VP16
T1 sequence: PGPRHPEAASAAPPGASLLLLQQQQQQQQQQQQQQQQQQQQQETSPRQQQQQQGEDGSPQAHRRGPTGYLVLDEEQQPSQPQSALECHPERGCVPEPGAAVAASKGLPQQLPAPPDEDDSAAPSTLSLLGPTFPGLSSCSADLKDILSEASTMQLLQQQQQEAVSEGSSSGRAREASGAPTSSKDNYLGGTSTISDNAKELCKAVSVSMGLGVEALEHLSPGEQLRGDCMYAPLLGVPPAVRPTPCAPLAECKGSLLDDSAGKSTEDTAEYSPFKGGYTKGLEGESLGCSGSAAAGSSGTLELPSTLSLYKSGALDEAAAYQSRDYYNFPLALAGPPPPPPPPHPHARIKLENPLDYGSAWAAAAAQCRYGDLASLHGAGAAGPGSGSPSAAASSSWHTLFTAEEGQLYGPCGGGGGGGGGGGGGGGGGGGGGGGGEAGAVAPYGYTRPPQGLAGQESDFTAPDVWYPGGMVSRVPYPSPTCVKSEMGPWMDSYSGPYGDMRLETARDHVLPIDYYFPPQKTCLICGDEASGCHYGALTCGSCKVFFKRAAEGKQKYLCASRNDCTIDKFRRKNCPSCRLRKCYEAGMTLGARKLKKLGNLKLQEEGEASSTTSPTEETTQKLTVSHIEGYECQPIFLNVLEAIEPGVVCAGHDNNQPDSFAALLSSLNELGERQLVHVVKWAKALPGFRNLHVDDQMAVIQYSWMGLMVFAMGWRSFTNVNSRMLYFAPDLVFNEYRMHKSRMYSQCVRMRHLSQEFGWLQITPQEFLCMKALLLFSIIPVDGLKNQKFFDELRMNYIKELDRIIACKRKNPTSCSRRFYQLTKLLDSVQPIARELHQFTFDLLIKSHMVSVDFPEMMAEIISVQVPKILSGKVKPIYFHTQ

[3] = molecular target: B7; test: mammalian two-hybrid in H1299 cells, pM-ARA67 + pVP16-ARN, pG5-Luc
AR DBD-LBD = molecular target: T2, AR DBD-LBD (human, UniProt P10275 557-920); test: yeast two-hybrid, liquid β-gal assay, bait GAL4 DBD-AR-DBD-LBD
T2 construct: also called GAL4-DBD-AR-DBD-LBD; GAL4-AR-DBD-LBD
T2 sequence: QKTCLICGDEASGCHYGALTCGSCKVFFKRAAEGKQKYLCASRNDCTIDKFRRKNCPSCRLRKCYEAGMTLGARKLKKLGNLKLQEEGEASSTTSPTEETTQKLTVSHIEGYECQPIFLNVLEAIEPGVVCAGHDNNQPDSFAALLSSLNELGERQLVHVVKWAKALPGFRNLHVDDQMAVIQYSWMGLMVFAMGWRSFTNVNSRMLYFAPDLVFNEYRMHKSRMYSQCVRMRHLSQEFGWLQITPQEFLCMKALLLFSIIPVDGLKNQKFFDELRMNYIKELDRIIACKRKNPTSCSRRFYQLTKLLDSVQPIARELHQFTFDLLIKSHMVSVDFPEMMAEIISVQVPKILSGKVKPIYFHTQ
Experimental: Liquid β-gal assay was performed as described previously.
In order to screen proteins with ligand-dependent interaction with AR, the human AR DBD-LBD was fused with the DBD of GAL4 functioned as bait in yeast two-hybrid screening (FIG. 23A). A pretransformed normal human ovary cDNA library was screened in the presence of 10 nM DHT.

[4] = molecular target: T1, VP16-AR containing the residues 37 to …; test: mammalian two-hybrid in PC-3 cells, GAL4 DBD-N-hRad9 + VP16-AR, 10 nM DHT
[5] = molecular target: T3, androgen receptor (AR), full length (human, UniProt P10275 1-920); test: GST pull-down: GST-ARA67 with 35S-labeled AR, with or without 10 uM DHT
T3 construct: also called AR-FL; pCMV-AR
T3 sequence: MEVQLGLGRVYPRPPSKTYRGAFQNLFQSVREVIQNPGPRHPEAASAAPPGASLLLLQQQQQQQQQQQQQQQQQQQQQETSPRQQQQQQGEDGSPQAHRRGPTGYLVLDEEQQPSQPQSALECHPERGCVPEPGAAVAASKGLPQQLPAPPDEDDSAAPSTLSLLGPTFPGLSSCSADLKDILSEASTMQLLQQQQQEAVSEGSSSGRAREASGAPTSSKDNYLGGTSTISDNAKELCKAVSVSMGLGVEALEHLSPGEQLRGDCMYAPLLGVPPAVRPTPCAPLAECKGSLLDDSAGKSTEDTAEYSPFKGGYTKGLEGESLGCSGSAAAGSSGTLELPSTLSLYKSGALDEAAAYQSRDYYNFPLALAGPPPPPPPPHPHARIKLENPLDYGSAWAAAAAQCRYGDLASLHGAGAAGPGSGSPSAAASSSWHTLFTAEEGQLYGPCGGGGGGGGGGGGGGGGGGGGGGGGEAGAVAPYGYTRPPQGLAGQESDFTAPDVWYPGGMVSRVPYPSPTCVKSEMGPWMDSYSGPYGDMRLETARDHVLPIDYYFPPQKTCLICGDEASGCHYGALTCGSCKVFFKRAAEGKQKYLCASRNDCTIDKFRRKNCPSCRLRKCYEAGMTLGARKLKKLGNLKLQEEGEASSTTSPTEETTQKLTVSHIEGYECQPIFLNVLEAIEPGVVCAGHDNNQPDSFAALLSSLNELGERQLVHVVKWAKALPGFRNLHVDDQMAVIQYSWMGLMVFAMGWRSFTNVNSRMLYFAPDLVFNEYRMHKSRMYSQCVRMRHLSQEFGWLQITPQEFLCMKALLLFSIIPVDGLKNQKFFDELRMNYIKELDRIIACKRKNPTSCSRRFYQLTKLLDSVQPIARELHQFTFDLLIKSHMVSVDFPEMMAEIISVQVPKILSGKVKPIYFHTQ
Experimental: Pulled-down proteins were separated on SDS-PAGE and visualized by autoradiography. […] After transfection cells were treated with or without 10 nM DHT for 24 h before harvesting. 500 μg total cell lysate proteins from each samples were immunoprecipitated with anti-AR antibody for Western blot analysis with anti-AR and anti-HA antibody (Roche).
The immunoprecipitates were analyzed by Western blotting.

Binder: B1
- binding result [1]: binds

Binder: B2
- binding result [2]: binds

Binder: B3
- binding result [3]: binds

Binder: B4
- binding result (AR DBD-LBD): no binding

Binder: B5
- binding result [4]: no binding

Binder: B6
- binding result [1]: binds

Binder: B7
- binding result [5]: binds
